Data on one protein can be found in patent US20190075806.

The target of data set [1] is neutral lactase (GODO-YNL2; unfragmented high molecular fraction F-1, about 120 kDa), P00723.
Chain of neutral lactase (GODO-YNL2; unfragmented high molecular fraction F-1, about 120 kDa), P00723 (P00723 whole entry, the tested form may be a part): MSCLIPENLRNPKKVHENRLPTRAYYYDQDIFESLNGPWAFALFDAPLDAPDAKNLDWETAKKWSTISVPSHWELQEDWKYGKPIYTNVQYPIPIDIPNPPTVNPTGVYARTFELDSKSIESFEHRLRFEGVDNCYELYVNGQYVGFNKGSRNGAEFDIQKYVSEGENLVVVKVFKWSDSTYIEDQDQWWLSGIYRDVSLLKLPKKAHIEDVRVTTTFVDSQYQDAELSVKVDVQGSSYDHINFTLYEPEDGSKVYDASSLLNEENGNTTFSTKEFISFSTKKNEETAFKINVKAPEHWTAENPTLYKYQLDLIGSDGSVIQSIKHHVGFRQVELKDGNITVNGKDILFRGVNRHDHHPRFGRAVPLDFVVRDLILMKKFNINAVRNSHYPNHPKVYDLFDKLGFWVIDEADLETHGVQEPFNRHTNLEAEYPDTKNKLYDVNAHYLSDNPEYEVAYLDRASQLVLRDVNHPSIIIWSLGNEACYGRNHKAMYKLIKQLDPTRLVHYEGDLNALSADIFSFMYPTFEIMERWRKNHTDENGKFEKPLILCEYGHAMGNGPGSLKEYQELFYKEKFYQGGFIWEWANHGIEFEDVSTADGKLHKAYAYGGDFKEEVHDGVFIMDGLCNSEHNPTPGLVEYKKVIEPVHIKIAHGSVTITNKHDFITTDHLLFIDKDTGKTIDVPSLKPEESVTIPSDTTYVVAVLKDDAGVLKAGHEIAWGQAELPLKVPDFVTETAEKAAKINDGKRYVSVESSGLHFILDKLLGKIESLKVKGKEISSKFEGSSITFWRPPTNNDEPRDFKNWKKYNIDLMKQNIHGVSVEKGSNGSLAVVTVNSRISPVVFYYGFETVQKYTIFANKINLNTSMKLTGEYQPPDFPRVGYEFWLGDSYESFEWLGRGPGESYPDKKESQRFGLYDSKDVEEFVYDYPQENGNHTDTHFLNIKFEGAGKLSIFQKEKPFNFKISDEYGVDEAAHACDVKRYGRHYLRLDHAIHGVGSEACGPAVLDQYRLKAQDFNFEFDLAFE

Chain of BSA, P02769 (P02769 25-607): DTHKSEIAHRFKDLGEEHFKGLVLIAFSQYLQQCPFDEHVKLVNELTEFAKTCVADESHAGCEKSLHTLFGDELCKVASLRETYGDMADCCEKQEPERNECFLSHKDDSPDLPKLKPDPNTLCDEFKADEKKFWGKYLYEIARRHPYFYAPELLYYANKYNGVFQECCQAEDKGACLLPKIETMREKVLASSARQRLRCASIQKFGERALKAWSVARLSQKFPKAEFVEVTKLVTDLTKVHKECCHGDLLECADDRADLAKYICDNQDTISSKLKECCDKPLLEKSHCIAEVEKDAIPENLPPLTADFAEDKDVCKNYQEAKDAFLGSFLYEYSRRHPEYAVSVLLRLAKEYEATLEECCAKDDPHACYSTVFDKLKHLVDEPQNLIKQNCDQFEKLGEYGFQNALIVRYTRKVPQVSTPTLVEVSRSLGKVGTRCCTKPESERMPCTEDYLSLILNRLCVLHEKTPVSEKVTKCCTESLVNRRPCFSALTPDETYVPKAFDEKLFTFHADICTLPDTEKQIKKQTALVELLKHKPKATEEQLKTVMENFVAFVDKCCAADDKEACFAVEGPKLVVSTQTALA

B1: proteinase B derived from Kluyveromyces lactis (mature enzyme) (protein)
chain: SFNTQNSAPWGLARISHREKLNLGSFNKYLYDDDAGKGVTAYVVDTGVNVNHKDFDGRAVWGKTIPKDDPDVDGNGHGTHCAGTIGSVHYGVAKNADIVAVKVLRSNGSGTMSDVVKGVEYVAEAHKKAVEEQKKGFKGSTANMSLGGGKSPALDLAVNAAVKAGVHFAVAAGNENQDACNTSPAAAENAITVGASTLSDERAYFSNWGKCVDIFGPGLNILSTYIGSDTATATLSGTSMATPHVVGLLTYFLSLQPDADSEYFHAAGGITPSQLKKKLIDFSTKNVLSDLPEDTVNY
B1: the SUBSTRATE SPECIFICITY (relative protease activity, K. lactis PrB) was 78 with FITC-casein; 1.9 in the data set with Azocoll; 1160 in data set [1]; 0 in the data set with BSA, P02769; 0 in the data set with Casein; 1 in the data set with Azocasein.
